In test [1] the target is F-actin (rabbit skeletal muscle actin, polymerised) (rabbit, UniProt P68135 1-377). The test can be described thus: co-sedimentation; F-actin co-sedimentation: rabbit skeletal muscle actin polymerized with 50 mM KCl, 2 mM MgCl2, 1 mM ATP; test protein added in F-actin buffer (with 5% glycerol or no glycerol), 30 min room temperature; 150,000xg, 4 °C, 1 h; SDS-PAGE, Coomassie, densitometry; KD by curve fitting. The following applies: both partners purified.

Test [2] has as its target full-length human ILK (C346S; C422S), subunit of the coexpressed IPP complex (human, UniProt Q13418 1-452, C346S | C422S). In words: SEC; purified IPP complex (coexpressed in E. coli, co-purified by Ni affinity on His6-PINCH-1) on Superose 6 10/300 GL. The following applies: both partners purified. On the technique in general: SEC sorts molecules by how far they enter the pores of the column.

These results are taken from paper PMC6203859, “Non-catalytic signaling by pseudokinase ILK for regulating cell adhesion” (Nature Communications, 2018).

As a reminder, the Kd is the free concentration of one partner at which half of the binding sites on the other are occupied at equilibrium, for simple one-to-one binding. A low value points to tighter binding.

Chain of full-length human ILK (C346S; C422S), subunit of the coexpressed IPP complex (Q13418 whole entry C346S/C422S, one chain of several): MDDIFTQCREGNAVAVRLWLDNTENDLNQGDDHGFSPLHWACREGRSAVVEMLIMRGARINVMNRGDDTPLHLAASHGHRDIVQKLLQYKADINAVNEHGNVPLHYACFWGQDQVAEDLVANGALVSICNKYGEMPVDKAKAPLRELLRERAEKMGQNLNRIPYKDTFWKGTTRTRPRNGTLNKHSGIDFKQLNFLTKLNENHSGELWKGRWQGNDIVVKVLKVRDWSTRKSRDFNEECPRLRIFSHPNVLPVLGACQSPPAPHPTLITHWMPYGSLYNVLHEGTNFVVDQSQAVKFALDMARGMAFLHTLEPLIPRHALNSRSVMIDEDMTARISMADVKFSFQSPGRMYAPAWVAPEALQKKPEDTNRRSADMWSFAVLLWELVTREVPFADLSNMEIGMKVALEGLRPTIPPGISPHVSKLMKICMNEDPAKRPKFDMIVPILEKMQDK

B1: α-Parvin-N (N-terminal region 1–91) as used in F-actin co-sedimentation (domain or fragment)
chain: MATSPQKSPSVPKSPTPKSPPSRKKDDSFLGKLGGTLARRKKAKEVSELQEEGMNAINLPLSPIPFELDPEDTMLEENEVRTMVDPNSRSD
notes: α-Parvin, human, N-terminal region; the text defines α-Parvin-N as 1-91; the methods list a GST-fused 1-89 and a hexahistidine-tagged 1-91 form; also called WT α-Parvin; source: E. coli, purified
In test [1], B1 came in with a Kd of approximately 21 µM.

B2: α-Parvin-N 5A (L37A/R39A/R40A/K41A/K42A) as used in F-actin co-sedimentation (domain or fragment)
chain: MATSPQKSPSVPKSPTPKSPPSRKKDDSFLGKLGGTAAAAAAAKEVSELQEEGMNAINLPLSPIPFELDPEDTMLEENEVRTMVDPNSRSD
notes: α-Parvin, human, N-terminal domain, residues 1-91 (both the GST-fused and the His6-tagged 5A forms are 1-91); source: E. coli, purified
B2 came in with a dissociation constant (Kd) in test [1] of approximately 49 µM.

B3: full-length human α-Parvin, subunit of the coexpressed IPP complex (natural protein, UniProt Q9NVD7 1-372, looked up)
chain: MATSPQKSPSVPKSPTPKSPPSRKKDDSFLGKLGGTLARRKKAKEVSELQEEGMNAINLPLSPIPFELDPEDTMLEENEVRTMVDPNSRSDPKLQELMKVLIDWINDVLVGERIIVKDLAEDLYDGQVLQKLFEKLESEKLNVAEVTQSEIAQKQKLQTVLEKINETLKLPPRSIKWNVDSVHAKSLVAILHLLVALSQYFRAPIRLPDHVSIQVVVVQKREGILQSRQIQEEITGNTEALSGRHERDAFDTLFDHAPDKLNVVKKTLITFVNKHLNKLNLEVTELETQFADGVYLVLLMGLLEGYFVPLHSFFLTPDSFEQKVLNVSFAFELMQDGGLEKPKPRPEDIVNCDLKSTLRVLYNLFTKYRNVE
Consider B3, for which, in test [2], the binding result was “binds”.
